The series can be described thus: yeast display, Sf9 membrane polyspecificity reagent, FACS + sequencing; frameworks hold sequencing errors. In short, it runs like this:
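Galactose induction of a Saccharomyces cerevisiae BJ5465 synthetic nanobody display library ran 36–48 hours. The cells were then stained for 1 hour at 4 °C with 10% biotinylated, detergent-solubilized Sf9 membrane reagent, pulled down on streptavidin microbeads and FACS-sorted into low and high (top ~1%) gates on expression and reagent-binding fluorescence. Labels for polyreactivity follow the gate of origin.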
As to “QVQHVESGGGLVQAGGSLRLSCASSGSTSGIHAMGWYRQAPGKDRELVAAIRLSGGRTYYADSVKGRFTISRDNAKNTVYLQMNSLKPEDTAVYFCNALYRQARIRATYDYWGQGTQVSVSS”, the “polyreactivity (PSR sort gate)” value was “high polyreactivity”.

As to “QVQHVESGGGLVQAGGSLRLSCSASGFTFYSYAMGWYRQAPGTERELLAVISKRGGSTRYADSVKGRFTISRDNAKNSVYFQMNSLKPEDTAVYYCNADQHSMTYNEFDYWGQGTQVTVSS”, the “polyreactivity (PSR sort gate)” value is “low polyreactivity”.

For the sequence “QVQHVESGGGLVQAGGSLRLSSAPSGRTFAYYARGWYRQAPGKERELVAAISNGGSTYYADSVKGRFTISRDNAKNTVFLQMNSLKPEDTAVYFCNAYYSDLYDYWGQGTQVTVSS”, the “polyreactivity (PSR sort gate)” value is given as “low polyreactivity”.

Consider “QVQHVESGGGLVQAGGSLRLTCAASGITFYRYAMGWYRQATGKEREFVAAINYGGSSTRYADSVKGRFTISLDNAKNSVYLQMNSLKPEDTAVYYCAVEKRYPRRRYDYWGQGTQVTVSS”, for which the “polyreactivity (PSR sort gate)” value is on record as “low polyreactivity”.

For the sequence “QVQHVESGGGLVQAGGSLRLTCAASGSTFVNYAMGWYRQAPGKERELVAAITANGGRTYYADSVKGRFTISRDNAKNTVYLQMNSLKPEDTAVYYCNTESNLYRRRRNYWGQGTQVTVSS”, the “polyreactivity (PSR sort gate)” value is “low polyreactivity”.

On to “QVQHVESGGGLVQAGGSLRLTCAASGTIFRYYTMRWYRQAPGKERELVASISRGGNTYYADSVKGRFTISRENAKNTVYLPMNSLKPEDTAVSYCAALPGSFFQAHFYYWGQGTQVTVSS”, for which the “polyreactivity (PSR sort gate)” value is listed as “low polyreactivity”.

Regarding “QVQHVESGGGLVQAGGTLRLSCAASGSTFLINTMGWYRQAPGKERELVAAISRSGGRTYYADSVKGRFTISRDNAKNTVYLQMNSLKPEDTAVYYCAAAYVYSNSYAFGSELYSWGQGTQVTVSS”, the “polyreactivity (PSR sort gate)” value was “high polyreactivity”.

As to “QVQHVESGGGLVQAGVSLRLSCAASGSIFPYNAMGWYRQAPGKERELVATISSGGSTNYADSVKGRFTISRDNAKNTVYLQMNSLKPEDTAVYYCAGDVIVFYYAPNYWGDIEYGYWGQGTQVTVSS”, the “polyreactivity (PSR sort gate)” value is listed as “low polyreactivity”.

“QVQHVESGGGLVQAVGSLRLSCAASGRTFNNYAMGWYRQAPGKERELVAAISWRSDSTYYADSVMGRFTISRDNAKNTVYLQMNSLKPEDTAVYYCAASQYPLFWYDYWGQGTQVTVSS”: the “polyreactivity (PSR sort gate)” value is given as “low polyreactivity”.

For the sequence “QVQHVESGGGLVQEGGSLRLICSASGIIFSWYAMGWYRQAPGKERELVATISGGGGSTYYADSVKGRFTISRENAKNTVYLQMNRLKPEDTAVYYCAADYWNFNWRYKLYRPYDYWGQGTQVTVSS”, the “polyreactivity (PSR sort gate)” value is listed as “high polyreactivity”.

As to “QVQHVESGGGLVQEGGSLRLSCGASGRTFSYYAMGCYRQPPGKEREMVAAIRATGTTTYYAVSVKGRFTISRDNAKITFYFQMNSLKQDDTAVYYCAARGSRYRSSGYEEWGQGTQVTVSS”, the “polyreactivity (PSR sort gate)” value is reported as “high polyreactivity”.

Take “QVQHVESGGGLVQSGGSLRLSCAASGRIFDYNAMGWSRQAPGKERELVAAITSSSGSSTYYADSVKGRFTISRDNAKNTVYLQMNSLIPVDTAVYYCNAGGSDIYLSPFDYWGQGTQVTVSS”: the “polyreactivity (PSR sort gate)” value was “low polyreactivity”.

As for “QVQHVESGGGVVQAGGSLRFSCAASGRIFYRYAMGWYRPAPGKERELVAAITIGGRTNYADSVKGRFTISRDNAKTTVYLQMNSLKPEDTAVYYCAVVLYTRYPPRVRYYYWGQGTQVTVSS”, the “polyreactivity (PSR sort gate)” value is recorded as “high polyreactivity”.

On to “QVQHVESGRGLVQAGGSLRLSCAASGRIFNPYAMGRYRQAPGKERELVAAISRGGRTYYADSVKGRFTISRDNAKNTVYLQMNSLKPEDTAVYYCNAGRGLREDDYWGQGTQVTVSS”, for which the “polyreactivity (PSR sort gate)” value was “low polyreactivity”.

On to “QVQHVESLGGLVQAGGSLRLSCAASGRTFFGYAMGWYRQEPGKERELVAAISSGGRTYFADSVKGRFTMSRDNAKNTVFLQMNSLKPEDTAVYYCAAQYSARYYYWGLGTQVTVSS”, for which the “polyreactivity (PSR sort gate)” value was “high polyreactivity”.

Take “QVQHVESRGGLVQAGGSLRLSCAASGFTFSRNAMGRYRQAPGKESDLVAAIDSGGSTDYADSVKGRFTNSRDNAKNTVYLQMNSLKPADTAVYYCAKASSATRYVQLRQDYDYWGQGTKVTVSS”: the “polyreactivity (PSR sort gate)” value is “low polyreactivity”.

In the case of “QVQHVESRGGLVQAGGSLRLSCAASGRIFGTYGMGRYRQAPGKERELVAAINWRGGSTYYADSVKGRFTISRDNAKNTVYLQMNSLIPEDTAVYYCNARLYRKRLGYWGQGTQVTVSS”, the “polyreactivity (PSR sort gate)” value is reported as “high polyreactivity”.

For the sequence “QVQHVESRGGLVQAGGSLRLSCAASGSIFNPYDMGWYRPATGKDRELVAAIDWSGGSTYYADSVKGRFTISRDNAKNTVYLQMNSLKPEDSAVYYCAAGYGGWAWNHVSYGGDYWGQGTQVTVSS”, the “polyreactivity (PSR sort gate)” value was “low polyreactivity”.

Take “QVQHVESRGGLVQAGGSLRLSCAASGSIFSANAMGWYRQAPGKVRELVAAITRGGSTNYADSVKGRFTISRDNAKNTVYLQMNSLKPEDTAVYYCNAEPDPYSSGRVRRDYDYWGQGTQVTVSS”: the “polyreactivity (PSR sort gate)” value is given as “low polyreactivity”.

For the sequence “QVQHVESRGGLVQAGGSLRLSCAASGSTIGFYAMGWYRQAPGKERELVAGITNGGRTYYADSVKGRFTISRDNAKNTVYLQMISLKPEDTAVYYCIRTPRSKGNYWGQGTQVTVSS”, the “polyreactivity (PSR sort gate)” value is listed as “high polyreactivity”.

Take “QVQHVESVGGLVQAGGSLRLSCAPSGSIFWDNAMGWYRQAPGKERELVAAITSSGDTTYYADSVKGRFTISRDNAKNTVYLQMNSLKQEDTAVYYCAKVFGPTDYLTGTFKGDYWGQGTQVTVSS”: the “polyreactivity (PSR sort gate)” value is recorded as “low polyreactivity”.

Regarding “QVQHVESVVGFVQAGASLRLSCASSVLILAQNTMGWYRQAPGKERELVAAISWRGGNTYYADSVKGRLTISRDNAKNTVYLKMNILKPEDTAVDYCAARRPRRIVDYDYWGQGTQVTVSS”, the “polyreactivity (PSR sort gate)” value was “high polyreactivity”.

As to “QVQHVESWRGLVQAGGSLRLSCAASGSTNYPNAMGWSRQAPGKERELVPAITSGGSTYYADSVKGRFTISRDNAKNTVYLPMNSLKPEDTAVYYCAAQRRYHQDTTIGPGNYYYWGQGTQVTVSS”, the “polyreactivity (PSR sort gate)” value was “low polyreactivity”.

As to “QVQHVESWRGLVQAGGSLRLSCDASGSIIQIYAMGWYRQAPGKVRELVASITWSGGSPYYADSVKGRFTISRDNAKNTVYLQMNSLKPEDTAVFYCATDKLYGRTVRMDYWGQGTQVTVSS”, the “polyreactivity (PSR sort gate)” value is “low polyreactivity”.

With “QVQIEDSGGGLVQAGGSLRLSCAASGSTLRGYAMGWYRHAPGKERELVAAISKNGGSTYYADSVKGRFTISRDKAKYTVYLQMNSLKPEDTAVYYCAAVGYYTKRRFGYWGQGTQVTVSS”, the “polyreactivity (PSR sort gate)” value is “high polyreactivity”.

For the sequence “QVQIEESGGALVQEGGSLRLSRAASGRTFYYYAMGWYRQAPGKERELVAGIDFSSGSTYYADSVKGRFTISRDNAKNTVYLQMNSLKPEDTAVYYCAAKWHVRGRGARYRYDYDYWGQGTQVTVSS”, the “polyreactivity (PSR sort gate)” value is “low polyreactivity”.

On to “QVQIVDSGGGLVQAGGRLRLSCAPSGITFVYYAMGWYRQAPGKEREFVASITSNGVSTYYADSVKGRYTISRDNAMNTVYLQMNSLKPEDTAVYYCAADGTYRNYWYDYWGQGTQVTVSS”, for which the “polyreactivity (PSR sort gate)” value was “low polyreactivity”.

Take “QVQIVDSGGGLVQAGGSLRLSCAASGRNFGYYAMGWYRQAPGKERELVAAISYSGGSTYYADSVKGRFTISRDMAKNTVYCQMNSLKPEDTAVYYCAAPGRWPQRYGYWGLGTQVTVSS”: the “polyreactivity (PSR sort gate)” value was “high polyreactivity”.

On to “QVQIVDSGGGLVQAGGSLRLTCAASAITFSTNALGWNRQAPGKERELVAAITSVTSTYYADSVKGRFTISRDNAKNTVYLLMKSLKTEYTAVYYWAARLSRWPYFYEYNYWGQGTEVTVSS”, for which the “polyreactivity (PSR sort gate)” value was “low polyreactivity”.

Consider “QVQIVESCGGLVQAGGSLRLICAATGSIFLRNTMGWYRQAPAKQRELVASIDWSGGITYYADSVKGRFTISRDNAKNTVYLQMNSLKQEDTAVYFCNAVFLYPFNVPTMEYWGQGTQVTVSS”, for which the “polyreactivity (PSR sort gate)” value is given as “low polyreactivity”.

“QVQIVESGAGLVQAGGSLRLSCAASGIIFPRYAMGWYRQAPGKERELVAAITIGGRTNYGDSVKGRFTISRDNGKNTFYLQMKSLKPEDTAVYYCAAQTFVPYSEYDYWGQGTQVTVSS”: the “polyreactivity (PSR sort gate)” value is “low polyreactivity”.

For the sequence “QVQIVESGGCLVQAGGSLRLSCAASGRTFWYYTMGWYRQAPGKEREFVAAISYSAGNTYYADSVKGRFTISRDNAKNTVYLQMNSLKPEDTAVNYCAVQRGYRSNAYDYWGQGTQVTVSS”, the “polyreactivity (PSR sort gate)” value is listed as “high polyreactivity”.

For the sequence “QVQIVESGGCLVQAGGSLRLSWAASGGIFSTNAMGWYRQAPGKERELVAAISRRGGSTYYADSVKGRFTISRDNAKNTGYLQMNSLKPEDTAVYYCNKYLRLFSYGRGYDYWGQGTQVTVSS”, the “polyreactivity (PSR sort gate)” value is “high polyreactivity”.

For “QVQIVESGGGLFQAGGSLRLSCAASGGIFDFYAMGWYRPATGKEWELVAAITRSGSSTFYADSVKGRFTISRDNAKNTVYLQMNILKPEDTAVYYCAAPYSYFAVYYGYIVEYDYWGQGTQVTVSS”, the “polyreactivity (PSR sort gate)” value was “low polyreactivity”.

As for “QVQIVESGGGLFQAGGSLRLSSAASGNTFDKYAMGWYRQAPGKEREMVAAISSGGRTYYADSVKGRFTISRDNAKNTVYLQMNSLKPEDTAVYYCGKGSAGRGMDSWGQGTQVTVSS”, the “polyreactivity (PSR sort gate)” value was “low polyreactivity”.

As to “QVQIVESGGGLIQEGGSLRLSCAASGSTFYYYAMGWYRPAPGKERELVAAIDRDDRTNYADSVKGRFTSSRDNAQNTVYLQMTSLKPEDTAVYYCAAVEIYEYDYWGQGTQVTVSS”, the “polyreactivity (PSR sort gate)” value is recorded as “low polyreactivity”.

Regarding “QVQIVESGGGLLQAGGSLRLSCAASGGTFPVYAMVWYRQAPGKERELVAAISYSGVTTYYADSVKGRFTISRDNAKNTVYLQINSLKPDDTAVFYCNADWRRWYIFSYDYWGQGTQVTVSS”, the “polyreactivity (PSR sort gate)” value was “low polyreactivity”.

For “QVQIVESGGGLLQAGGSLRLSCAASGLTFGSYAMGWYRQAPGKERELVAAISRSGGSTYYADSVKGRFTISRDNAKNTVYLQMNSLKPEDTAVYYCNAVNPYYAPTERRVGFDYWGQGTQVTVSS”, the “polyreactivity (PSR sort gate)” value is given as “high polyreactivity”.

Consider “QVQIVESGGGLVQAAVSLPISCPASGSIFGSYAMGWYRQAPGKERELVAAISKSGGSTYYADSVKGRFTISRDYAKNTVNLQMNSLKPEDTEVYYCAARAFLYAYRAYDYWGQGTQVNVSS”, for which the “polyreactivity (PSR sort gate)” value is “high polyreactivity”.

Regarding “QVQIVESGGGLVQAGCSLRLSCAASGFIFRRNAMGWYRQAPGKERELVATIRASGGRTYYADSEKGRFTISRDNAKNTVYLQMNSMKPEDTAVYYCAADTYRDVRDPYYYWGQGTQVTVSS”, the “polyreactivity (PSR sort gate)” value is listed as “high polyreactivity”.

The record behind these values is the nanobody polyreactivity screen of Harvey et al. (2022).
